Drawing on patent publication US20220332804A1 (CSL INNOVATION, published 2022), this text covers Fold diff for 1 molecule.

Common to all, as to experiment: SPR, KD relative to WT C2;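 note: biacore SPR at 37 °C, anti-C2 mAbs captured on anti-human IgG chips with alanine or serine point mutants of C2 as analyte, KD from 1:1 fit compared with wild-type C2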
Background: SPR reads the build-up and loss of mass on a sensor chip optically.

One experiment concerns the target T1, human C2 N380A (human, UniProt P06681 21-752).
T1 sequence: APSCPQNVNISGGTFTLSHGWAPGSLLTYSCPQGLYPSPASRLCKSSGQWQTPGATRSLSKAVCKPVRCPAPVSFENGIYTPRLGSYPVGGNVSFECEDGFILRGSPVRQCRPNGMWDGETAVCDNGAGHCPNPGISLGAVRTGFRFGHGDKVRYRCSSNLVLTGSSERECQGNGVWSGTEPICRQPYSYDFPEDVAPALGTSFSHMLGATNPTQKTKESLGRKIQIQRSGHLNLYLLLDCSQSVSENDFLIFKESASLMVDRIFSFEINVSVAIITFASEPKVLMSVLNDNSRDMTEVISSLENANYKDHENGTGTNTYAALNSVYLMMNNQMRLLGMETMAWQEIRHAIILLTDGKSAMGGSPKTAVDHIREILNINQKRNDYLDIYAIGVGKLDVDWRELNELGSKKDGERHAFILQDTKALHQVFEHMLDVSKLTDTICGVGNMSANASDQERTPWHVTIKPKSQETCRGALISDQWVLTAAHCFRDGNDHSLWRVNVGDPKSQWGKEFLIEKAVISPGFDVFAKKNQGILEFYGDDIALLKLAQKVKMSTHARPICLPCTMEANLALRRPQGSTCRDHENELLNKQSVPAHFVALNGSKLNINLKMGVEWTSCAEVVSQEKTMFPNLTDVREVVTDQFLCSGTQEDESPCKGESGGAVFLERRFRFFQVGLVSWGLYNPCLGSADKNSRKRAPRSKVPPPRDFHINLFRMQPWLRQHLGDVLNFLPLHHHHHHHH

Another experiment deals with T2, human C2 D282A (human, UniProt P06681 21-752).
T2 sequence: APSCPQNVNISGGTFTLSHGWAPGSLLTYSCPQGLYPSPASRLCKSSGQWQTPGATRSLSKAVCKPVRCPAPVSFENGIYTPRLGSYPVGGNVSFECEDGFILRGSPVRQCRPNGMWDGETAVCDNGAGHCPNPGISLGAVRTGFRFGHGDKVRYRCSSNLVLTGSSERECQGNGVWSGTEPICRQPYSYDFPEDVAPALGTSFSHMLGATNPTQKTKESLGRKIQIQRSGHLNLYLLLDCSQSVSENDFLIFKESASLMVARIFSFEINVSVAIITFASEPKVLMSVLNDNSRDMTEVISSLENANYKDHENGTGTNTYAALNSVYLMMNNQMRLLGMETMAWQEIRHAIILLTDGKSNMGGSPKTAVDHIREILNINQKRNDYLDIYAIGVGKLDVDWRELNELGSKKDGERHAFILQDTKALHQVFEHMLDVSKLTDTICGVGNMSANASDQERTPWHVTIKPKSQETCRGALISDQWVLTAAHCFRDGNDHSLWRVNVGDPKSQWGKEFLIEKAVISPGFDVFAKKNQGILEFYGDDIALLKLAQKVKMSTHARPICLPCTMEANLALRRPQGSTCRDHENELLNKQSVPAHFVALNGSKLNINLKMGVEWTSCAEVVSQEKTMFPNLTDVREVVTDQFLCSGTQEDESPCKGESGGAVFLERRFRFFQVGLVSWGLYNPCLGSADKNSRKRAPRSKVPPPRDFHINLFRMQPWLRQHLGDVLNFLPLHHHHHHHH

The next experiment concerns the target T3, human C2 G427A (human, UniProt P06681 21-752).
T3 sequence: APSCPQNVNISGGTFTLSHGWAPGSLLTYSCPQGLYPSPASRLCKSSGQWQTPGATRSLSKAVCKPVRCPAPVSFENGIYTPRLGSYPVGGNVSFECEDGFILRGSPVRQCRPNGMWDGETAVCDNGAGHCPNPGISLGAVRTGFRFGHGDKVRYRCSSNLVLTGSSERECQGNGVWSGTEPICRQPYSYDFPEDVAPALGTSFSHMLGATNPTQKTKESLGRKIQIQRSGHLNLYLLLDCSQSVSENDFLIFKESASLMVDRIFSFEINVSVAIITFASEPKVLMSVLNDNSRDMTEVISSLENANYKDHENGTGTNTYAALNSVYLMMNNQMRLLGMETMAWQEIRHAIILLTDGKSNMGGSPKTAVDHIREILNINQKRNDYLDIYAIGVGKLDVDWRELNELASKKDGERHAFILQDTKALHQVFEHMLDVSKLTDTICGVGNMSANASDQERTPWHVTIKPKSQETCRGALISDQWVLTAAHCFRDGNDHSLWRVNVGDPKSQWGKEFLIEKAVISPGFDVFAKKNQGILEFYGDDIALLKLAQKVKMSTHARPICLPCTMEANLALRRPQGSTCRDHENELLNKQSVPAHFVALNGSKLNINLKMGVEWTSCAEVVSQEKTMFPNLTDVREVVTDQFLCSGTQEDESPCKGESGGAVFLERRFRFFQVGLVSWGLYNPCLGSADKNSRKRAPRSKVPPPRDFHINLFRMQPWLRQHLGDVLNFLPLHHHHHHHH

In the next experiment the target is T4, human C2 K244A (human, UniProt P06681 21-752).
T4 sequence: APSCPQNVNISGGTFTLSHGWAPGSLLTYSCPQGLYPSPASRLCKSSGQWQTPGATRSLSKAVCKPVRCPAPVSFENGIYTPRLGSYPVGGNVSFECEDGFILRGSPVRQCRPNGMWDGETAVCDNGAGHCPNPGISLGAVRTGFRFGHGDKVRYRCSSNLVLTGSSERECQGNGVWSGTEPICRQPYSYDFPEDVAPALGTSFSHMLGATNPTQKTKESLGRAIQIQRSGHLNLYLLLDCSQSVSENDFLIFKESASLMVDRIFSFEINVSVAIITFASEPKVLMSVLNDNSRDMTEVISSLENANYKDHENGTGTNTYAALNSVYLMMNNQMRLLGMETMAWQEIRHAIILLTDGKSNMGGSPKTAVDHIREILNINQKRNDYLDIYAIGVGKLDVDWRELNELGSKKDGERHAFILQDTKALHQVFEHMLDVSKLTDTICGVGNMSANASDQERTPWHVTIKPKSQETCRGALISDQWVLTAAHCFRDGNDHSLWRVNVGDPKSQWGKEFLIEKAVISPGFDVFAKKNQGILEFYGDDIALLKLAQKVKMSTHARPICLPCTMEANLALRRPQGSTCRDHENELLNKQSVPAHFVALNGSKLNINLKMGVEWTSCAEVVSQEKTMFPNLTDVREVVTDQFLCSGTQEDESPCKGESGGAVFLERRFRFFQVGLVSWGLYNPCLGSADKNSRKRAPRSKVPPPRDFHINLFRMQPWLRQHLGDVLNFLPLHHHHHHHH

B1: RF16-242 (antibody, human IgG4 S228P, lambda, V domains shown)
VH: EVQLLQSGAEVKKPGESLKISCKGSGYSFTSYWIGWVRQMPGKGLEWMGIIYPGDSDTRYSPSFQGQVTISADKSISTAYLQWSSLKASDTAMYYCARRGHYGDYFDYWGQGTLVTVSS
VL: SYELTQPPSVSVSPGQTARITCSGDALPKKYAYWYHQKSGQAPVLVIYEDRRRPSEIPERFSGSSSGTMATLTITGAQVEDEGVYFCYSRDRAGNQRVFGGGTQLTVLG
notes: pH-dependent anti-C2 antibody from a phage display library
For B1, the Fold diff with human C2 N380A stood at 1 fold; in the experiment with human C2 D282A, 1 fold; with human C2 G427A, 1 fold; in the experiment with human C2 K244A it was 4 fold.
